The record followed here is the RNAGym collection of RNA variant scans (doi:10.1073/pnas.2313332121).

This sample holds only a part of the variants without activity.

Sequences and labels used below:
B1: TPR 5TU (parent)
chain: GGAUCUUCUCGAUCUAACAAAAAAGACAAAUCUGCCACAAAGCUUGAGAGCAUCUUCGGAUGCAGAGGCGGCAGCCUUCGGUGGCGCGAUAGCGCCAACGUUCUCAACUAUGACACGCAAAACGCGUGCUCCGUUGAAUGGAGUUUAUCAUG

In this series the parent is B1. Nature of the series: polymerase ribozyme fitness, log enrichment relative to wild type (log ratio); higher = more active; in vitro selection for triplet polymerase activity. In outline:
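Mutant libraries for each subunit of a heterodimeric triplet polymerase ribozyme were made by PCR and then transcribed. Each library underwent one round of in vitro selection in triplicate: annealing with a biotinylated primer, the partner subunit and triplets, frozen incubation at −7 °C, gel excision of extended constructs, streptavidin-bead capture and RT-PCR. Input and output libraries were Illumina-sequenced, and only genotypes with ≥10 input reads and ≥1 read per output were kept. Fitness is the logarithm, base 2, of genotype enrichment over wild-type enrichment, computed from inverse-variance-weighted replicate averages.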
Take GGAUCUUCUCGAUCUAACAAAAAAGACAAAUCUGCCACAAAGCUUGAGCGCAUAUUCGGAUGCAGAGGCGGCAGCCUCCGGUGGUGCGAUAGCGCCAACGUUCUCAACUAUGACACGCAAAACGCGUGCUCCGUUGAAUGGAGUUUAUCAUG [A49C C54A U78C C85U]: the “polymerase ribozyme fitness (log ratio)” value was -3.91.
For GGUUCUUCUCGAUCUAACAAAAAAGACAAAUCUGCCACAAAGCUUGAGAGCAUCUUCGGAUGCAGAUGCGGCAGCCUUCGGUGGCGCGAUAGCGCCAACGUUCUCAUCUAUGACACGCAAAACGCGUGCUCCGUUGAAUGGAGUUUAUCAUG [A3U G67U A107U], the “polymerase ribozyme fitness (log ratio)” value is not above -4.2.
Consider GGAUCUUCUCGAUCUCACAAAAAAGAAAAUUCUGCCAGAAAGCUUGAUAGCAUCUUCGGAUGCAGAGGCGGCAGCCUUCGGUGGCUCGAUAGCGCCAACGUUCUCAACUUUGACAGGCAAAACGCGUGCUCCGUUGAAUGAAGUUUAUCAUG [A16C C27A A30U C38G G48U G86U A110U C116G G141A], for which the “polymerase ribozyme fitness (log ratio)” value is -4.02.
The value for GGAUCUUCUCGAUCUAACAAAAAAGACAAAUCUGCCCCAAAGCUUGAGAGCAUCUUCGGAUGCAGAGGCGGCAGCCUUCGGUGGCGCGAUAGCGCCGACGUUCUCAACUAUGACACGCAAAACGCGUGCUCCGUUGAAUGGAGUUUAUCAUG [A37C A97G] was 0.477; that for GGAUCUUCUCGAUCUAACAAAAAAGACAAAUCUGCCACAAAGCUUGAGAGCAUCUUCGGAUGCAGAGGCGGCAGCCUUCGGUGGCGCGAUAGUGCCAGCGUUAUCAACUAUGACACGCAAAACGCGUGCUCCGUUGAAUGGAGUUUAUCAUG [C93U A98G C103A] was -2.73; that for GGAUCUUCUCGAUCUAACAAAAAAGACAAAUCUGCCACAAAGCUUGAGAGCAUCUUCGUAUGCAGAGGCGGCAGCCUUCGGUGGCGCGAUAGCGCUAACGUUCUCAACUAUGACACGCAACACGCAUGCUCCGUUGAAUGGAGUUGAUCAUG [G59U C96U A121C G126A U146G] was -2.76.
Next, GGAUCUUCUCGAUCUAACAAAAAAGACAAAUCUGCCACAAAGCUUGAGAGCAUCUUCGGAUGCAGAGGCGGCAGCCUUCGGUGGCGCGAUCGCGCCAACGUUCUCAACUAUGACGCGCAAAACGCGUGCUCCGUUGAAUGGAGUUAAUCAUG [A91C A115G U146A]: not above -4.2; GGAUUUUCGCGCUCUAACAAAAAAGACAAAUCGGCCACAAAGCUUGAGAGCAUCUUCAGAUGCAGAGGCGGCAGCCUUCGGUGGCGCAAUGGCACCAACGUUCUCAACUAUGCCACGCAACACGCGUGCUCCGUUGAAUGGAGUUUAUCAUG [C5U U9G A12C U33G G58A G88A A91G G94A A113C A121C]: not above -4.2; GGAUCUUCUCGCUCUAACAAAAAAGACAAAACUGCCACAAAGCUUGGGAGCAUCUUCGGAUGCAGAGGCGGCAGCCUUAGGUGGCGCGAUAGCGCCAACGUUCUCAACUAUGACACGCAAAACGCGUGCUCCGUUGAAUGGAGUUUAUCAUG [A12C U31A A47G C79A]: not above -4.2.
With GGAUCUUCUCGAUCUAACAAAAAAGACAAAUCUGCCACAAAGCUUGAGAGCAUCUUCGGAUGCAGAGGCGGCAGCCUUCGGUGUCGCGAUAGCGCCAACGUUCUCAACUAUGACACGUAAAACGCGUGCUCCGUUGAAUGGAGUUUAUCAUG [G84U C118U], the “polymerase ribozyme fitness (log ratio)” value was -1.91.
Next, GGAUCCUCUCGAUCUAACAAAAAAGACAAAUCUGCCACAAAGCUUGAGAGCAUCUUCGGAUGCAGAGGCGGCAGCCUUCGGUGGGGCGAUAGCGCCAACGUUCUCAACUAUGACACGCAAAACGCGUGCUCCGUUGAAUGGAGUUUAUCAUG [U6C C85G]: -2.95.
As to GGAUCUUCUCGAUCUAACAAAAAAGACAAAUCUGUCACAAAGCUUGAGAGCAUCUUCGGAUGCAGAGGCGGCAGCCUUCGGUGUCGCGUUAGCGCCGACGUUCUCAACUAUGACACGCAAAACGCGUGCUCCGUUGAAUGGAAUUUAUCAUG [C35U G84U A89U A97G G143A], the “polymerase ribozyme fitness (log ratio)” value is -2.66.
As for GGAUCUUCUCGAUCUAACAAAAAAGACAAAUCUGCCACAAAGCUUGAGAGCAUCUUCGGAUGCAGAGGCGGCAGCCUUCGGUGGCGCGAUAGCCCCAACGUUCUCCACUAUGACAUGCAAAACGCGUGCUCCGUUGAAUGGAGUUUAUCAUG [G94C A106C C116U], the “polymerase ribozyme fitness (log ratio)” value was -3.12.
As to GGAUCUUCUCGAUCUAACAAAAAAGACAAAUCUUCCACAAAGCUUGAGAGCAUCUGCAGAUGCAGAGGGGGCAGCCUUCGGUGGCGCGAUAGCCCCGACGUUCUCAACUAUGACACGCAAAACGCGUGCUCCGCUGAAUGGAGUUUAUCAUG [G34U U56G G58A C69G G94C A97G U134C], the “polymerase ribozyme fitness (log ratio)” value is not above -4.2.
With GGAUCUUCUCGAUCUAACAAAAAAGACAAAUCUGGCACAAAGCUUGAGAGCAUCUUCGGAUGCAGAGGCGGCAGUCUUCGGUGGCGCGAUUGCGCCAACGUUCUCAACUAUGACACGCAAAACGCGUGCUCCGUUGAAUGGAGUUUACCGUG [C35G C75U A91U U148C A150G], the “polymerase ribozyme fitness (log ratio)” value is not above -4.2.
On to GGAUCUUCUCGAUCUAACAAAUAAGACAAAUCUGCCACAAAGCUUGAGAGCAUCUUCGGAUGCAGAGGCGGCAGCCUUCGGUGGCGCGAUAGCGCUAACGUUCUCAACUAUGACACGCAAUACGCGUGCUCCGUUGAAAGGAGUUUAUCAUG [A22U C96U A121U U139A], for which the “polymerase ribozyme fitness (log ratio)” value was -4.03.
The value for GGACCUUCUCGAUCUAACAAAAAAGACAAAUCUGCCACAAAGCUUGAGAGCAUCUUCGGAUGCAGAGGCGGCAGCCUUCGGUGGCGGGAUAGCGCCAACGUUCUCAGCUAUGACACGCAAAACGCGUGCUCCGUUGAAUGGAGUUUAUCAUG [U4C C87G A107G] was not above -4.2; that for GGAUCUUCUCGGUCUAACAAAAAAGACAAAUCUGCCACAAAGCUUGAGAGCAUCUUCGGAUGCAGAGGCGGCAGCCUUCGGUGGCGCCAUAGCGCCAACGUUCUCAACUAUGACACGCAAAACGCGUGCUCCGUUGAAUGGAGUUUAUCAUG [A12G G88C] was -3.71; that for GGAUCUUCUCGAUCUAACAAAAAAGACAAAUCUGCCACAAAGCUUGAGUGCAUCUUCGGAUGCAGAGGCGGCAGCCUUCGGUGUCGCGAUAGCGCCCACGUUCUCAACUAUGACACGCAAAACGCCUGCUCCGUUGAGUGGAGUUUAUCGUG [A49U G84U A97C G126C A138G A150G] was not above -4.2.
